Source: paper PMC4069020, “A 14.7 kDa Protein from Francisella tularensis subsp. novicida (Named FTN_1133), Involved in the Response to Oxidative Stress Induced by Organic Peroxides, Is Not Endowed with Thiol-Dependent Peroxidase Activity” (PLoS ONE, 2014)

Molecular target: the molecule itself
Test: non-reducing SDS-PAGE

B1: FTN_1133 (14.7 kDa protein from Francisella tularensis subsp. novicida), recombinant His-tagged (natural protein)
chain: MAISQNVIKILQDIDELDLFSNISDEWSTLLNESDDNIKIKKLYSALVKESIRRETAERLAKDAKSYCDLVQEQAKQRISDLKESLESQITFLTQQIKDLKVESAKNLDYYRNELKKANRSLIDNKS
notes: also called His-FTN_1133
In the case of B1, the “stoichiometry N” value is reported as 2.
